The record followed here is patent publication US7026125, “Heterodimers of retinoid X receptors (RXRS) and other steroid hormone receptors” (Ligand Pharmaceuticals).

Common to all, as to experiment: EMSA
Holding throughout (details): label: 32P
Background: Mobility shift assays separate free from complexed probe on a gel.

For one data set, the target named is RARβ/RXRα heterodimer (UniProt P10826-2;P19793 P10826-2:1-448,P19793:1-462). On the procedure:
(§1) (a) In vitro synthesized TRα, TRβ, RARα, RARβ, RARγ and TRα2 receptor proteins were preincubated either with (+) or without (−) equal amount of in vitro synthesized RXRα protein at room temperature for 10 minutes. Following this preincubation, the reaction mixtures were incubated with ^32p-labelled palindromic TRE (for 1 sequence see FIG. 2a) and analyzed by gel retardation assay as described in Experimental Procedures. […] As a control, equal amounts of TRα and RARα proteins were also mixed and incubated with labelled TRE.
(§2) In vitro translated receptor protein (1 to 5 μl depending on the translation efficiency) was incubated with the ^32P-labeled oligonucleotides in a 20-μl reaction mixture containing 10 mM hepes buffer, pH 7.9, 50 mM KCl, 1 mM DTT, 2.5 mM MgCl, 10% glycerol, and 1 μg of poly(dI-dC) at 25° C. for 20 minutes. In general, relative low receptor concentration was used to obtain the clear effect of heterodimer formation. The reaction mixture was then loaded on a 5% nondenaturing ployacrylamide gel containing 0.5×TBE (1×TBE=0.089 M Tris-borate, 0.089 M boric acid, and 0.002 M EDTA). To analyze the effect of RXRα or the nuclear proteins on receptor DNA binding activity, RXRα or the cell extracts were preincubated with receptor protein at room temperature for 10 minutes before performing the DNA binding assay. When antibody was used, 1 μl of the antiserum was incubated with the specific translation products at room temperature for 45 minutes before performing the experiments described above.

A further data set addresses RARα/RXRα heterodimer (Homo sapiens, UniProt P10276;P19793 P10276:1-462,P19793:1-462). As to the method:
as §1, §2

A further data set addresses T1, TRβ (UniProt P10828 P10828:1-461).
T1 sequence: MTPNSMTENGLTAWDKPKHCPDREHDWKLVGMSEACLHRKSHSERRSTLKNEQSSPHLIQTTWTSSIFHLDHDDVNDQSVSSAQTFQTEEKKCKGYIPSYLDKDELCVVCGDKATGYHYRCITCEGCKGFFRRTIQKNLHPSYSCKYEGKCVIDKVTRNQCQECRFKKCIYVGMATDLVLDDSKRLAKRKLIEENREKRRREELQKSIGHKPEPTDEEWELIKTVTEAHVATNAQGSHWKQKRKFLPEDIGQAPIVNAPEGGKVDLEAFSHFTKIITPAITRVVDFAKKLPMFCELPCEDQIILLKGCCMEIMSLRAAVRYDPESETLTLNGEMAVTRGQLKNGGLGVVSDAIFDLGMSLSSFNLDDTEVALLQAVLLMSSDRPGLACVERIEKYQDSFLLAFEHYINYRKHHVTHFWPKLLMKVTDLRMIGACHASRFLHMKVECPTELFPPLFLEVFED
On the procedure:
as §1, §2

The target in the next data set is RARγ/RXRα heterodimer (UniProt P13631;P19793 P13631:1-454,P19793:1-462). As to the method: as §1, §2
Sequence of RARγ/RXRα heterodimer (P13631 whole entry, chain 1 of 2): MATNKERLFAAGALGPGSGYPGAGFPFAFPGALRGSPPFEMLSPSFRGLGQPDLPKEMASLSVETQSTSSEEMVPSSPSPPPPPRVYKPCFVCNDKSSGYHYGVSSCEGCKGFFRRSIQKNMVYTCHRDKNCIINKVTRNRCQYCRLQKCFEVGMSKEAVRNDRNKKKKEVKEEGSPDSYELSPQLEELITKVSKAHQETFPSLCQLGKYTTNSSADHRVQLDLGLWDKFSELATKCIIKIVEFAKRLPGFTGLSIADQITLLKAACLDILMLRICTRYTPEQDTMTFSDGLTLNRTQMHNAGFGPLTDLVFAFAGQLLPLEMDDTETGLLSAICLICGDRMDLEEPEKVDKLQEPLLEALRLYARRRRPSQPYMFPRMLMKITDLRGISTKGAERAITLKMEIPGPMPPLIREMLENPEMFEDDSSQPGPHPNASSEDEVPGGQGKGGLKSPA
Sequence of RARγ/RXRα heterodimer (P19793 whole entry, chain 2 of 2): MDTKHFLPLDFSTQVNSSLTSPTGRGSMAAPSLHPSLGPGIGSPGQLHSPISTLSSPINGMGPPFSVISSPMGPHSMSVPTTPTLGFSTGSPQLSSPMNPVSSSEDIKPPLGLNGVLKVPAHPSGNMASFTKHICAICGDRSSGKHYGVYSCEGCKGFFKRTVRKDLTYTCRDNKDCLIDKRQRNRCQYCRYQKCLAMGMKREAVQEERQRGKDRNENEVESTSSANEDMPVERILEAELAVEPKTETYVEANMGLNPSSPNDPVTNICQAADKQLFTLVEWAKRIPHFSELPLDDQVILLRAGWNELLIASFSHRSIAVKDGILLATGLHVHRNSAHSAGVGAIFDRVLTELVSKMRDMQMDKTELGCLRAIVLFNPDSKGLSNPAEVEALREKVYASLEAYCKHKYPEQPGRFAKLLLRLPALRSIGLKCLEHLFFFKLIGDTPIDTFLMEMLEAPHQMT
The target in another data set is RARγ/RXRαm3 (UniProt P13631;P19793 P13631:1-454,P19793:28-462, RXRα N-terminal deletion of 28 aa). As to the method:
as §2

Another data set deals with RARγ + RXRαm5 (UniProt P13631;P19793 P13631:1-454,P19793:198-462, RXRα N-terminal deletion of 198 aa including DNA binding domain). As to the method:
as §2

Sequence of RARγ/RXRαm3 (P13631 whole entry, stated change not applied, chain 1 of 2): as the sequence (P13631 whole entry, chain 1 of 2) above
Sequence of RARγ/RXRαm3 (P19793 29-462, stated change not applied, chain 2 of 2): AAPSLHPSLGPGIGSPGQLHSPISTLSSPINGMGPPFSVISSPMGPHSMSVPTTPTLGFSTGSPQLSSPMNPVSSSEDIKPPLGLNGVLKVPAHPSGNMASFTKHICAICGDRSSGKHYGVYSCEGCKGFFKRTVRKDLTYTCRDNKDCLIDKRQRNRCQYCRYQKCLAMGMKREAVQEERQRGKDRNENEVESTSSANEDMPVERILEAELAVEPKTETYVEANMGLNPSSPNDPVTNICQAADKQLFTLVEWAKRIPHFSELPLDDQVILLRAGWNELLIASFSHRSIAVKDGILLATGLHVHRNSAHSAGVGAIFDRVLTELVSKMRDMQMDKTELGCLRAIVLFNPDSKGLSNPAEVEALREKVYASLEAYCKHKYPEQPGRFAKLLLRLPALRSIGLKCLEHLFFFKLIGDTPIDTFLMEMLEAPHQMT
Sequence of RARγ + RXRαm5 (P13631 whole entry, stated change not applied, chain 1 of 2, the tested form may be a part): as the sequence (P13631 whole entry, chain 1 of 2) above
Sequence of RARγ + RXRαm5 (P19793 199-462, stated change not applied, chain 2 of 2): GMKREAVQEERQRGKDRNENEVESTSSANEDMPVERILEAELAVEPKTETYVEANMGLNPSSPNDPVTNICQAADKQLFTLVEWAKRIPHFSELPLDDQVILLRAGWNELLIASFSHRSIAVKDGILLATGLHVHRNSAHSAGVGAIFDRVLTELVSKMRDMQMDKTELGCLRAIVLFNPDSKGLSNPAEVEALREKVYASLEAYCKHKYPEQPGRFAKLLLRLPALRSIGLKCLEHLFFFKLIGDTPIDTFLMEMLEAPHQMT
Sequence of RARα/RXRα heterodimer (P10276 whole entry, chain 1 of 2): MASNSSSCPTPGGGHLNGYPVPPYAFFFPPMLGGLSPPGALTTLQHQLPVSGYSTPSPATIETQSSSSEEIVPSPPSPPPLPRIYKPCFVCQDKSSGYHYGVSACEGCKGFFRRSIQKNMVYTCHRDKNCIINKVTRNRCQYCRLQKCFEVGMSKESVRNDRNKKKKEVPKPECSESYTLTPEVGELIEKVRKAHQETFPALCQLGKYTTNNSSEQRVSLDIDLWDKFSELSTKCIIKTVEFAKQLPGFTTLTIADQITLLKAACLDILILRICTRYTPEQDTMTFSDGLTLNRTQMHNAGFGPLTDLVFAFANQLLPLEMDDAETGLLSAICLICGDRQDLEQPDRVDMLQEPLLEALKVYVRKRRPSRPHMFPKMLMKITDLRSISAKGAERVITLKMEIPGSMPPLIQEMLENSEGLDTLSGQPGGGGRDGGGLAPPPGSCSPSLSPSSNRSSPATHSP
Sequence of RARα/RXRα heterodimer (P19793 whole entry, chain 2 of 2): as the sequence (P19793 whole entry, chain 2 of 2) above
Sequence of RARβ/RXRα heterodimer (P10826 other isoform, or with tags, fused parts or gaps, chain 1 of 2): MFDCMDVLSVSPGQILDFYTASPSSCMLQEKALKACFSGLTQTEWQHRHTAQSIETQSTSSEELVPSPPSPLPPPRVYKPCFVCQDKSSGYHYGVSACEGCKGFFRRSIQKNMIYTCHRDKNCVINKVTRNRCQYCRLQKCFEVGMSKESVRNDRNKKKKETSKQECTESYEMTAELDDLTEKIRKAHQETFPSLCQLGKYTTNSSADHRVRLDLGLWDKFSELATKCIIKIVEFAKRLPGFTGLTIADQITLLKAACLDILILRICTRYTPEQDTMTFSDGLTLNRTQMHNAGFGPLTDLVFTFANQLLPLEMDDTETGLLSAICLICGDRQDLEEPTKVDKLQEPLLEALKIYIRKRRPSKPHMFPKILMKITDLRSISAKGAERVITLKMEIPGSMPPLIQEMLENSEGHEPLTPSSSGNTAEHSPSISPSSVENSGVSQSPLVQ
Sequence of RARβ/RXRα heterodimer (P19793 whole entry, chain 2 of 2): as the sequence (P19793 whole entry, chain 2 of 2) above

B1: palindromic TRE (dsDNA)
DNA 1: GATCTCAGGTCATGACCTGAGATC
DNA 2: GATCTCAGGTCATGACCTGAGATC
Consider B1, for which the binding result with RARβ/RXRα heterodimer is “binds”; with RARα/RXRα heterodimer it was “binds”; with TRβ it was “binds”; in the data set with RARγ/RXRα heterodimer it was “binds”; in the data set with RARγ/RXRαm3, “binds”; with RARγ + RXRαm5 it was “no binding”.
